Substitutions are numbered along the chain they refer to. In names and notes the source's numbering stands.
T1: human SEMA4A expressed on cells (UniProt ID Q9H3S1, isoform 1) (human, UniProt Q9H3S1 33-761)
T1 sequence: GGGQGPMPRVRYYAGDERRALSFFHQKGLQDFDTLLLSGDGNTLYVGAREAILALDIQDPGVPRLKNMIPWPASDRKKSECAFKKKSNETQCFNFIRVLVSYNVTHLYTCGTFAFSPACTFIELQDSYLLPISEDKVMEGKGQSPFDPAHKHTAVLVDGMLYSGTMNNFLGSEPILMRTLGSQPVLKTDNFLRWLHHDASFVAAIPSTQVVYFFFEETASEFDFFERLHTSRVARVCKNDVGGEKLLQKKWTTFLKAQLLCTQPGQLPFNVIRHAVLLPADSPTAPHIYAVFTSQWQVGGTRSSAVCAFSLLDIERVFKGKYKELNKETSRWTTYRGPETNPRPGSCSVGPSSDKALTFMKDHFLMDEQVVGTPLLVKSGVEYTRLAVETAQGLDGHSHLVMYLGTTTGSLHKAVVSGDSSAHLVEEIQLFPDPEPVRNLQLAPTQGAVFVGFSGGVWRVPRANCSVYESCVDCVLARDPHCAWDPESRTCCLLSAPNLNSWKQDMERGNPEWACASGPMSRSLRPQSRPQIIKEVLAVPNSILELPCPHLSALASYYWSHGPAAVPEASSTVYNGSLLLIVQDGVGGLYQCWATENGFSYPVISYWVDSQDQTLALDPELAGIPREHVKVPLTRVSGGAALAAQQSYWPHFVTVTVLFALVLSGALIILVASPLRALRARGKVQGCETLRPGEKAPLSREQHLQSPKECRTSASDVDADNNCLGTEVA

T2: human SEMA4B expressed on expi293 cells (human, UniProt Q9NPR2 44-837)
T2 construct: whole, on cells
T2 sequence (looked up): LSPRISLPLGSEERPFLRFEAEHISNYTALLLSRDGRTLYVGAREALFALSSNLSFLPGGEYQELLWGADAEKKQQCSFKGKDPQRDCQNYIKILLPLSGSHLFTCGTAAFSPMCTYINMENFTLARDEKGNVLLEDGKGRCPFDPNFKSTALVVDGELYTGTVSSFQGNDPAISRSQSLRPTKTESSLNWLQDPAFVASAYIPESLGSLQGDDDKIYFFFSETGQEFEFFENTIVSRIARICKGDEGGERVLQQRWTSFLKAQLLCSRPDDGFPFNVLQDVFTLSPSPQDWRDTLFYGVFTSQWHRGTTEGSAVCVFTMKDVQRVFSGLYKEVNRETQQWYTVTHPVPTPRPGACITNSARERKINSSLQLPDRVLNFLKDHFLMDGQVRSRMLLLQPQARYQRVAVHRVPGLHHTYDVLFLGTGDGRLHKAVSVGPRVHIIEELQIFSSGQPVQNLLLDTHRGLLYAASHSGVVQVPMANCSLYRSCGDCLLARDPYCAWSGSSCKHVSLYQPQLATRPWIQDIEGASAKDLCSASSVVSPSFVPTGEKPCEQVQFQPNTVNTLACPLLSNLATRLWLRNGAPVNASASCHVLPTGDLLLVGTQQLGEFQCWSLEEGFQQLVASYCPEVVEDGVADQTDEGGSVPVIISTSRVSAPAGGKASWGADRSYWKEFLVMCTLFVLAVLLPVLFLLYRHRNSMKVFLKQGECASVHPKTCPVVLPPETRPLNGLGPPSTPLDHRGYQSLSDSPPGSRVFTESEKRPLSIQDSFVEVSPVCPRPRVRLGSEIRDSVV

B1: C0120905 human Alya IgG1 conjugated to McMMAF (antibody, V domains shown)
VH: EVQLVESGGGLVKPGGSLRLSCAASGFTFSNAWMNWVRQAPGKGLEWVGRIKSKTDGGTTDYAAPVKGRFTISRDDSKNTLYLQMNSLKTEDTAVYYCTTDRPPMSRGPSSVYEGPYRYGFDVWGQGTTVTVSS
VL: NFMLTQPHSVSESPGKTVTISCTGSGGNIVDNFVQWHQQRPGSAPRTVIYEDDQRPSGVPDRFSASVDSSSNSGTLSISGLKTEDEADYYCQSYDGANRWVFGGGTKLTVL
modifications: McMMAF on the engineered cysteines 239iCys and S442C (EU numbering) of the heavy constant region
notes: Antibody-drug conjugate; human IgG1 Alya constant; also called C0120905-McMMAF
B2: C0120917 human Alya IgG1 conjugated to McMMAF (antibody, V domains shown)
VH: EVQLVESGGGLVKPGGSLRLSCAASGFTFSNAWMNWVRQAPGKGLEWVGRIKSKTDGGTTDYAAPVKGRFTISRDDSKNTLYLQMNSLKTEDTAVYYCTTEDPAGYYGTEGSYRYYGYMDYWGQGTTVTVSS
VL: NFMLTQPHSVSESPGKTVTISCTASGDTLDNKYVNWYQVRPGSAPATLIFHYEERDSGVPDRFSGSFDASSNSASLTISGLQTADEADYFCQSYDSKRDNLVVFGGGTKVTVL
modifications: McMMAF on the engineered cysteines 239iCys and S442C (EU numbering) of the heavy constant region
notes: Antibody-drug conjugate; human IgG1 Alya constant; also called C0120917-McMMAF
B3: C0120918 human Alya IgG1 conjugated to McMMAF (antibody, V domains shown)
VH: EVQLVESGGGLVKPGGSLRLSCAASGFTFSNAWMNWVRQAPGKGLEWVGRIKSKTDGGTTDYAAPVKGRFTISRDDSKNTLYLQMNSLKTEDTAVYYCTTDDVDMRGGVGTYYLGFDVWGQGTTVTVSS
VL: SYELTQPPSVSVSPGQTARITCSGDALPKQYAYWYQQKPGQAPVLVIYKDSERPSGIPERFSGSSSGTTVTLTISGVQAEDEADYYCQSADSSGTWVFGGGTKVTVL
modifications: McMMAF on the engineered cysteines 239iCys and S442C (EU numbering) of the heavy constant region
notes: Antibody-drug conjugate; human IgG1 Alya constant; also called C0120918-McMMAF
B4: C0120914 human Alya IgG1 conjugated to McMMAF (antibody, V domains shown)
VH: QVQLQESGPGLVKPSETLSLTCTVSGGSVSSGRYDWSWIRQPPGKGLEWIGHIYYTGITDYNPSLRSRVTISADKPKNQFSLKLNSVTAADTAVYYCARGPFFDPWGQGTMVTVSS
VL: QSVLTQPPSVSVAPGQTASLTCGANNIGSKSVQWYQQKPGQAPVLVVYDGSDRPSGIPDRFSGSSSENTATLTISRVEAGDEADYYCQLWDSVTDRPVFGGGTKVTVL
modifications: McMMAF on the engineered cysteines 239iCys and S442C (EU numbering) of the heavy constant region
notes: Antibody-drug conjugate; human IgG1 Alya constant; also called C0120914-McMMAF
B5: 5Hg1-5Lg1 human Alya IgG1 conjugated to McMMAF (antibody, V domains shown)
VH: QVQLVQSGAEVKKPGASVKVSCKASGYTFTDYWMHWVRQAPGQGLEWMGAIDTSDSYTSYNQKFKGRVTMTRDTSTSTVYMELSSLRSEDTAVYYCARDYGNFYYYAMDYWGQGTLVTVSS
VL: QAVVTQEPSLTVSPGGTVTLTCRSSTGAVTTSNYANWFQQKPGQAPRTLIYGTNNRAPWTPARFSGSLLGGKAALTLSGAQPEDEAEYYCALWYSNHWVFGGGTKLTVL
modifications: McMMAF on the engineered cysteines 239iCys and S442C (EU numbering) of the heavy constant region
notes: Antibody-drug conjugate; human IgG1 Alya constant; also called 5Hg1/5Lg1-McMMAF
B6: 5Hg2-5Lg2 human Alya IgG1 conjugated to McMMAF (antibody, V domains shown)
VH: B5 VH with G44R, M70I, T76A, V79A
VL: B5 VL with S78L
modifications: McMMAF on the engineered cysteines 239iCys and S442C (EU numbering) of the heavy constant region
notes: Antibody-drug conjugate; human IgG1 Alya constant; also called 5Hg2/5Lg2-McMMAF
B7: C0120906 human Alya IgG1 conjugated to McMMAF (antibody, V domains shown)
VH: EVQLVQSGPEVKKPGASVKISCKASGYKLNDPGVHGVSWVRQAPGQGLEWMGWISTLNGDTRYAQKFQGRVTMATDSSTSTIYMDLRSLKSDDTALYYCARDDYTAIFDFWGRGTLVTVSS
VL: QSVLTQPPSVSVAPGQTASITCGGSNIGSQSVHWYQQKPGQAPVLVVYDDSDRPSGIPERFSGSKSGNTASLILSRVEAGDEADYYCQVWDSSTDHHVFGTGTKVTVL
modifications: McMMAF on the engineered cysteines 239iCys and S442C (EU numbering) of the heavy constant region
notes: Antibody-drug conjugate; human IgG1 Alya constant; also called C0120906-McMMAF
B8: C0120903 human Alya IgG1 conjugated to McMMAF (antibody, V domains shown)
VH: EVQLVQSGAEVKKPGSSMKVSCKASGGTFNSYTINWVRQAPGQGLEWVGGFIPIFGTADYAQKFHGRVAITADESMSTAYMELSSLRSEDTAVYYCARAPLGSEPFDYWGQGTMVTVSS
VL: SYVLTQPPSVSVAPGQTARITCGGNNIGSKSVHWYQQKPGQAPVLVVYDDSDRPSGIPERFSGSNSGNTATLTISRVEAGDEADYYCQVWDSSSDHLVFGGGTKLTVL
modifications: McMMAF on the engineered cysteines 239iCys and S442C (EU numbering) of the heavy constant region
notes: Antibody-drug conjugate; human IgG1 Alya constant; also called C0120903-McMMAF

target: T1, human SEMA4A expressed on cells …; test: cell-based or functional assay

Binder | EC50 (nM), Fab-pHast internalisation into NCI-H929 | Fold-Change at 6 hours (10 nM), Fab-pHast internalisation
B1 | 3.72 nM | 91 fold
B2 | 8.29 nM | 53 fold
B3 | 3.62 nM | 79 fold
B4 | 3.29 nM | 112 fold
B5 | 0.54 nM | 121 fold
B6 | 0.59 nM | 103 fold
B7 | 4.1 nM | 116 fold
B8 | 0.98 nM | 118 fold

target: T2, human SEMA4B expressed on expi293 cells; test: Mirrorball direct binding, dilution series on expi293 cells transiently transfected with human SEMA4B, anti-human Alexa Fluor 647
Procedure: To determine the specificity profile of each purified human Alya IgG1 conjugated to McMMAF, a dilution series was tested for binding to human SEMA4A, human SEMA4B and mock transfected cells (transient transfections set up in expi 293 cells.) The three assays employed methods described in section 2.3, using the appropriate cells and substituting the un-purified scFv periplasmic preparation with the human Alya IgG1 conjugated to McMMAF. Data was analysed as Count x median mean intensity (x FLU).

Binder | binding result
B1 | no binding (tested: log (M) -8 (1e-8 M))
B2 | no binding (tested: log (M) -8 (1e-8 M))
B3 | no binding (tested: log (M) -8 (1e-8 M))
B4 | no binding (tested: log (M) -8 (1e-8 M))
B5 | no binding (tested: log (M) -8 (1e-8 M))
B6 | no binding (tested: log (M) -8 (1e-8 M))
B7 | no binding (tested: log (M) -8 (1e-8 M))
B8 | no binding (tested: log (M) -8 (1e-8 M))

target: T1, human SEMA4A expressed on cells …; test: flow cytometry on NCI-H929 cells endogenously expressing human SEMA4A, 10-point titration
Procedure: Binding of SEMA4A specific IgGs to membrane-bound SEMA4A was evaluated using flow cytometry in NCI-H929 cells that endogenously express human SEMA4A. Binding assays were performed by incubating the anti-SEMA4A antibodies with 200,000 cells for 3 hours at 4° C. followed by two washes with PBS, 1% (w/v) BSA (FACS buffer). A range of antibody concentrations were evaluated using a 10-point, 3-fold dilution series. Cells were then incubated with Alexa Fluor 647 conjugated AffiniPure Fab Fragment Goat Anti-Human IgG (H+L) (Jackson Immunoresearch Europe Limited, Ely, Cambridgeshire) diluted 1:100, at 4° C. for 1 hour, followed by two washes in FACS buffer. Cells were then stained with LIVE/DEAD™ Fixable Violet Dead Cell Stain (Life Technologies, L34955) for 30 minutes at 4° C., followed by two washes in FACS buffer. Cells were then fixed using BD Cell Fix (BD Biosciences, 340181). Fluorescence of live, single cells was measured using a Novocyte™ 3000 flow cytometer and Novoexpress software (Acea Biosciences, Inc, San Diego, CA). Data were analysed using FlowJo software (FlowJo, LLC, Ashland, OR). Mean fluorescence intensity values were plotted against antibody conjugate concentrations and KD values determined using Prism software (GraphPad Software Inc, La Jolla, CA).

Binder | Kd
B1 | 34.3 nM
B2 | 40.5 nM
B3 | 1.6 nM
B4 | 9.04 nM
B5 | 1.46 nM
B6 | 2.46 nM
B7 | 9.67 nM
B8 | 9.88 nM

target: T1, human SEMA4A expressed on cells …; test: cell-based or functional assay; remark: another data set of the same source

Binder | Average MM1.S IC50 [pM], cell kill | Average NCI-H929 IC50 [pM], cell kill
B1 | 63.5 pM | 90.8 pM
B2 | 10.9 pM | 18.1 pM
B3 | 13.2 pM | 55.8 pM
B4 | 1.1 pM | 2.5 pM
B7 | 4.7 pM | 3 pM
B8 | 8.8 pM | 7.1 pM

target: T1, human SEMA4A expressed on cells …; test: cell-based or functional assay; remark: another data set of the same source

Binder | Average KARPAS 25 IC50 [pM], cell kill | Average MM1.S IC50 [pM], cell kill | Average NCI-H929 IC50 [pM], cell kill
B5 | 625 pM | 35.8 pM | 100 pM
B6 | 181 pM | 10.7 pM | 34.3 pM

From patent US20250152729A1 (CANCER RESEARCH TECHNOLOGY, published 2025)
